Reference: patent US20260115269A1, “MYC[…] CELL EPITOPES, MEGAPOOLS AND USES THEREOF” (La Jolla Institute for Immunology, priority 2022, published 2026)

B1: Rv1196: Mtb vaccine candidate antigen, tested as peptides (protein, UniProt L7N675 1-391, looked up)
PPE family protein PPE18: MVDFGALPPEINSARMYAGPGSASLVAAAQMWDSVASDLFSAASAFQSVVWGLTVGSWIGSSAGLMVAAASPYVAWMSVTAGQAELTAAQVRVAAAAYETAYGLTVPPPVIAENRAELMILIATNLLGQNTPAIAVNEAEYGEMWAQDAAAMFGYAAATATATATLLPFEEAPEMTSAGGLLEQAAAVEEASDTAAANQLMNNVPQALQQLAQPTQGTTPSSKLGGLWKTVSPHRSPISNMVSMANNHMSMTNSGVSMTNTLSSMLKGFAPAAAAQAVQTAAQNGVRAMSSLGSSLGSSGLGGGVAANLGRAASVGSLSVPQAWAAANQAVTPAARALPLTSLTSAAERGPGQMLGGLPVGQMGARAGGGLSGVLRVPPRPYVMPHSPAAG
modifications: tested as peptides
B2: Rv3615c: Mtb antigen included in the ESAT-6 free IGRA test (protein, UniProt P9WJD7 2-103, looked up)
ESX-1 secretion-associated …: TENLTVQPERLGVLASHHDNAAVDASSGVEAAAGLGESVAITHGPYCSQFNDTLNVYLTAHNALGSSLHTAGVDLAKSLRIAAKIYSEADEAWRKAIDGLFT
B3: Rv0288: Mtb antigen, TB vaccine candidate antigen, tested as peptides (protein, UniProt P9WNK3 1-96, looked up)
ESAT-6-like protein EsxH: MSQIMYNYPAMLGHAGDMAGYAGTLQSLGAEIAVEQAALQSAWQGDTGITYQAWQAQWNQAMEDLVRAYHAMSSTHEANTMAMMARDTAEAAKWGG
modifications: tested as peptides

Tests used:
[1] = system: PBMCs from ATB participants; assay: Fluorospot screen of 517 overlapping 15-mer peptides spanning TB vaccine candidate and IGRA antigens; type: cell-based, human; settings: overlapping 15-mers; IGRA+ data from previous study
[2] = system: PBMCs from participants mid-treatment for ATB; assay: Proteome-wide peptide library screen: ex vivo IFNγ and IL-17 Fluorospot, positive pools deconvoluted to individual epitopes; type: cell-based, human; settings: n=21

Row | Molecule | antigen recognition in ATB (n=21) compared with healthy IGRA+ participants (n=63) [1] | antigen recognition in the proteome-wide screen [2]
1 | Rv3874: Mtb IGRA antigen, tested as peptides | most frequently recognized | most frequently recognized
2 | B1 | most frequently recognized | –
3 | B2 | – | most frequently recognized
4 | B3 | most frequently recognized | most frequently recognized
